The text below walks through data of patent publication US20030092619A1.

For the test, the target named is full length STAT6 (human) (UniProt P42226). The test can be described thus: cell-based or functional assay.

Where only a bound is given, the exact number is not on record here.

full length STAT6 (human), sequence (P42226 2-847): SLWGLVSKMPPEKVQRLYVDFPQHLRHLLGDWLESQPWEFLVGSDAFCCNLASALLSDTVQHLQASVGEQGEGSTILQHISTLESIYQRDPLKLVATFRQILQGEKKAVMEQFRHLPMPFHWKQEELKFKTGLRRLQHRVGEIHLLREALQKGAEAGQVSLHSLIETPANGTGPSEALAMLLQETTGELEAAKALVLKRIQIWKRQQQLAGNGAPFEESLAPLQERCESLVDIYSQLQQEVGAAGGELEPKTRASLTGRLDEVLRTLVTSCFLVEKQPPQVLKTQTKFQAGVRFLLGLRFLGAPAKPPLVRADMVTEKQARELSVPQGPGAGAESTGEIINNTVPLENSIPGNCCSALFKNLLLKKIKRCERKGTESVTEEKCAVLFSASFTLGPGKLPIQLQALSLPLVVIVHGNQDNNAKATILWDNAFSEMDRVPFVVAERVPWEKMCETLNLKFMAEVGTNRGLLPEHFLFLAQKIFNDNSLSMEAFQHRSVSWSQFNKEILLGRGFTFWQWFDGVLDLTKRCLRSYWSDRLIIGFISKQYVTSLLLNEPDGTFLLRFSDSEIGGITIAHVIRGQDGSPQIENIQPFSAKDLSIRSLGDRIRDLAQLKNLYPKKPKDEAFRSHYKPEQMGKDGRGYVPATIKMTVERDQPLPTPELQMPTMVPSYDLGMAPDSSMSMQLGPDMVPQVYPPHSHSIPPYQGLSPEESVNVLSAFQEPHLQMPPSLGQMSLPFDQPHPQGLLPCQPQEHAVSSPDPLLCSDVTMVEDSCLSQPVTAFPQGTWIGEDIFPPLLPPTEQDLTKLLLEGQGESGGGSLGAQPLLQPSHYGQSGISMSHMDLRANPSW

On to “NCoA-1 (nuclear coactivator 1), full length (from UniProt P70365 2-1447)”, for which the luciferase reporter with multimerized STAT6 response elements, HepG2 cells, IL-4 induced was less than 3 fold.
